Test results taken from US20070197430A1, “Conjugates And Therapeutic Uses Thereof” (priority 2004, published 2007).
Peptide text beside a SMILES is read from it.

Columns and labels:
[1] = system: pre-B tumor cells from E-mu myc transgenic mice; assay: Cell viability by propidium iodide exclusion, flow cytometry; type: cell-based; conditions: Mus musculus, 24 h, read-out: % viable cells at 24 hours
Protocol: After 24 hours incubation at 37° C. in 5% CO2, the cells were washed with PBS and 50 μL of 100 μg/mL solution of propidium iodide was added to each well. The cells were analyzed by flow cytometry (BD Facscan) and the viable cells denoted as the percentage of cells excluding propidium iodide.

Bcl-w ΔC29 = target: T1, Bcl-w ΔC29 (Homo sapiens, UniProt Q92843); assay: Alphascreen GST competition assay with biotinylated Bim BH3-26 peptide; type: binding; conditions: for binding affinity for Bcl-w ΔC29 compared to the linear 16-mer, in words: Examples 8 and 9; for decrease in binding affinity: relative to linear 16-mer
T1 sequence (Q92843 1-164 limits assumed): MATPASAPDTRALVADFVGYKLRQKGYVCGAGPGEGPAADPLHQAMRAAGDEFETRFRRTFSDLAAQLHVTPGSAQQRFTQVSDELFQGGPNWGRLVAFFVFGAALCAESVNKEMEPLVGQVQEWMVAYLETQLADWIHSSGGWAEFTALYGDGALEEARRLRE

[2] = target: GST tagged Bcl w delta C29 protein (UniProt Q92843); assay: competition assay; competitor: biotinylated Bim BH3 peptide
[3] = target: GST tagged Bcl w delta C29 protein (UniProt Q92843); assay: competition assay; compared with the linear 16-mer

COc1cc([C@@H]2c3cc4c(cc3[C@@H](O[C@@H]3O[C@@H]5CO[C@@H](C)O[C@H]5[C@H](O)[C@H]3O)[C@H]3COC(=O)[C@H]23)OCO4)cc(OC)c1O [Etoposide]
viability at 0.015 µM ([1]; concentration 0.015 μM): 80%
viability at 0.0312 µM ([1]; concentration 0.0312 μM): 50%
viability at 0.0625 µM ([1]; concentration 0.0625 μM): 21%
viability at 0.125 µM ([1]; concentration 0.125 μM): 0%
viability at 0.25 µM ([1]; concentration 0.25 μM): 0%
viability at 0.5 µM ([1]; concentration 0.5 μM): 0%
viability at 1 µM ([1]; concentration 1.0 μM): 0%

CC[C@H](C)[C@H](NC(C)=O)C(=O)N[C@@H](Cc1ccccc1)C(=O)N[C@H](C(=O)N[C@@H](C)C(=O)N[C@@H](CCC(N)=O)C(=O)N[C@@H](CCC(=O)O)C(=O)N[C@@H](CC(C)C)C(=O)N[C@@H](CCCNC(=N)N)C(=O)N[C@@H](CCCNC(=N)N)C(=O)N[C@H](C(=O)NCC(=O)N[C@@H](CC(=O)O)C(=O)N[C@@H](CCC(=O)O)C(=O)N[C@@H](Cc1ccccc1)C(=O)N[C@@H](CC(N)=O)C(=O)N[C@@H](C)C(N)=O)[C@@H](C)CC)[C@@H](C)CC [N] (Ac-IFIAQELRRIGDEFNA-NH2)
binding affinity for Bcl-w ΔC29 compared to the linear 16-mer, in words (Bcl-w ΔC29): drop in binding

Peptide G (constrained) Ac-QAIAQZLRRIGDZFNA-NH2
IC50 [2]: 2.4 nM

CC[C@H](C)[C@H](NC(C)=O)C(=O)N[C@@H](Cc1c[nH]c2ccccc12)C(=O)N[C@H](C(=O)N[C@@H](C)C(=O)N[C@@H](CCC(N)=O)C(=O)N[C@@H](CCC(=O)O)C(=O)N[C@@H](CC(C)C)C(=O)N[C@@H](CCCNC(=N)N)C(=O)N[C@@H](CCCNC(=N)N)C(=O)N[C@H](C(=O)NCC(=O)N[C@@H](CC(=O)O)C(=O)N[C@@H](CCC(=O)O)C(=O)N[C@@H](Cc1ccccc1)C(=O)N[C@@H](C)C(=O)N[C@@H](C)C(N)=O)[C@@H](C)CC)[C@@H](C)CC [Peptide S] (Ac-IWIAQELRRIGDEFAA-NH2)
binding affinity for Bcl-w ΔC29 compared to the linear 16-mer, in words (Bcl-w ΔC29): only slight, if any, loss of binding affinity

CC[C@H](C)[C@H](NC(C)=O)C(=O)N[C@@H](Cc1c[nH]c2ccccc12)C(=O)N[C@H](C(=O)N[C@@H](C)C(=O)N[C@@H](CCC(N)=O)C(=O)N[C@@H](CCC(=O)O)C(=O)N[C@@H](CC(C)C)C(=O)N[C@@H](CCCNC(=N)N)C(=O)N[C@@H](CCCNC(=N)N)C(=O)N[C@H](C(=O)NCC(=O)N[C@@H](CC(=O)O)C(=O)N[C@@H](CCC(=O)O)C(=O)N[C@@H](C)C(=O)N[C@@H](CC(N)=O)C(=O)N[C@@H](C)C(N)=O)[C@@H](C)CC)[C@@H](C)CC [Peptide L] (Ac-IWIAQELRRIGDEANA-NH2)
decrease in binding affinity (Bcl-w ΔC29): 1,000 fold

CC[C@H](C)[C@H](NC(C)=O)C(=O)N[C@@H](Cc1c[nH]c2ccccc12)C(=O)N[C@H](C(=O)N[C@@H](C)C(=O)N[C@@H](CCC(N)=O)C(=O)N[C@@H](CCC(=O)O)C(=O)N[C@@H](CC(C)C)C(=O)N[C@@H](CCCNC(=N)N)C(=O)N[C@@H](CCCNC(=N)N)C(=O)N[C@H](C(=O)NCC(=O)N[C@@H](CC(=O)O)C(=O)N[C@@H](CCC(=O)O)C(=O)N[C@@H](Cc1ccccc1)C(=O)N[C@@H](CC(N)=O)C(=O)N[C@@H](CC(N)=O)C(N)=O)[C@@H](C)CC)[C@@H](C)CC [Peptide U] (Ac-IWIAQELRRIGDEFNN-NH2)
decrease in binding affinity (Bcl-w ΔC29): two-fold

CC[C@H](C)[C@H](NC(C)=O)C(=O)N[C@@H](Cc1c[nH]c2ccccc12)C(=O)N[C@H](C(=O)N[C@@H](C)C(=O)N[C@@H](CCC(N)=O)C(=O)N[C@@H](CCC(=O)O)C(=O)N[C@@H](C)C(=O)N[C@@H](CCCNC(=N)N)C(=O)N[C@@H](CCCNC(=N)N)C(=O)N[C@H](C(=O)NCC(=O)N[C@@H](CC(=O)O)C(=O)N[C@@H](CCC(=O)O)C(=O)N[C@@H](Cc1ccccc1)C(=O)N[C@@H](CC(N)=O)C(=O)N[C@@H](C)C(N)=O)[C@@H](C)CC)[C@@H](C)CC [Peptide J] (Ac-IWIAQEARRIGDEFNA-NH2)
decrease in binding affinity (Bcl-w ΔC29): about 1000 fold

CC[C@H](C)[C@H](NC(C)=O)C(=O)N[C@@H](Cc1c[nH]c2ccccc12)C(=O)N[C@@H](C)C(=O)N[C@@H](C)C(=O)N[C@@H](CCC(N)=O)C(=O)N[C@@H](CCC(=O)O)C(=O)N[C@@H](CC(C)C)C(=O)N[C@@H](CCCNC(=N)N)C(=O)N[C@@H](CCCNC(=N)N)C(=O)N[C@H](C(=O)NCC(=O)N[C@@H](CC(=O)O)C(=O)N[C@@H](CCC(=O)O)C(=O)N[C@@H](Cc1ccccc1)C(=O)N[C@@H](CC(N)=O)C(=O)N[C@@H](C)C(N)=O)[C@@H](C)CC [Peptide I] (Ac-IWAAQELRRIGDEFNA-NH2)
binding affinity for Bcl-w ΔC29 compared to the linear 16-mer, in words (Bcl-w ΔC29): slight decrease in binding affinity
decrease in binding affinity (Bcl-w ΔC29): 100 fold

CC[C@H](C)[C@H](NC(=O)[C@H](CCCNC(=N)N)NC(=O)[C@H](CCCNC(=N)N)NC(=O)[C@H](CC(C)C)NC(=O)[C@H](CCC(=O)O)NC(=O)[C@H](CCC(N)=O)NC(=O)[C@H](C)NC(=O)[C@@H](NC(=O)[C@H](Cc1c[nH]c2ccccc12)NC(=O)[C@H](C)NC(C)=O)[C@@H](C)CC)C(=O)NCC(=O)N[C@@H](CC(=O)O)C(=O)N[C@@H](CCC(=O)O)C(=O)N[C@@H](Cc1ccccc1)C(=O)N[C@@H](CC(N)=O)C(=O)N[C@@H](C)C(N)=O [O, Ac-AWIAQELRRJGDEFNA-NH2] (Ac-AWIAQELRRIGDEFNA-NH2)
binding affinity for Bcl-w ΔC29 compared to the linear 16-mer, in words (Bcl-w ΔC29): drop in binding

Peptide T (linear) Ac-IWIAQELCitCitIGDEFNA-NH2
IC50 [2]: 20 nM

CC[C@H](C)[C@H](NC(C)=O)C(=O)N[C@@H](C)C(=O)N[C@H](C(=O)N[C@@H](C)C(=O)N[C@@H](CCC(N)=O)C(=O)N[C@@H](CCC(=O)O)C(=O)N[C@@H](CC(C)C)C(=O)N[C@@H](CCCNC(=N)N)C(=O)N[C@@H](CCCNC(=N)N)C(=O)N[C@H](C(=O)NCC(=O)N[C@@H](CC(=O)O)C(=O)N[C@@H](CCC(=O)O)C(=O)N[C@@H](Cc1ccccc1)C(=O)N[C@@H](CC(N)=O)C(=O)N[C@@H](C)C(N)=O)[C@@H](C)CC)[C@@H](C)CC [P] (Ac-IAIAQELRRIGDEFNA-NH2)
binding affinity for Bcl-w ΔC29 compared to the linear 16-mer, in words (Bcl-w ΔC29): drop in binding

CC[C@H](C)[C@H](NC(C)=O)C(=O)N[C@@H](CCCNC(=N)N)C(=O)N[C@H](C(=O)N[C@@H](C)C(=O)N[C@@H](CCC(N)=O)C(=O)N[C@@H](CCC(=O)O)C(=O)N[C@@H](CC(C)C)C(=O)N[C@@H](CCCNC(=N)N)C(=O)N[C@@H](CCCNC(=N)N)C(=O)N[C@H](C(=O)NCC(=O)N[C@@H](CC(=O)O)C(=O)N[C@@H](CCC(=O)O)C(=O)N[C@@H](Cc1ccccc1)C(=O)N[C@@H](CC(N)=O)C(=O)N[C@@H](C)C(N)=O)[C@@H](C)CC)[C@@H](C)CC [Q] (Ac-IRIAQELRRIGDEFNA-NH2)
binding affinity for Bcl-w ΔC29 compared to the linear 16-mer, in words (Bcl-w ΔC29): drop in binding

CC[C@H](C)[C@H](NC(C)=O)C(=O)N[C@@H](Cc1c[nH]c2ccccc12)C(=O)N[C@H](C(=O)N[C@@H](C)C(=O)N[C@@H](CCC(N)=O)C(=O)N[C@@H](CCC(=O)O)C(=O)N[C@@H](CC(C)C)C(=O)N[C@@H](CCCNC(=N)N)C(=O)N[C@@H](CCCNC(=N)N)C(=O)N[C@@H](C)C(=O)NCC(=O)N[C@@H](CC(=O)O)C(=O)N[C@@H](CCC(=O)O)C(=O)N[C@@H](Cc1ccccc1)C(=O)N[C@@H](CC(N)=O)C(=O)N[C@@H](C)C(N)=O)[C@@H](C)CC [Peptide K] (Ac-IWIAQELRRAGDEFNA-NH2)
decrease in binding affinity (Bcl-w ΔC29): 3 fold

Ac-IWIAQELRRIGDEFAA-NH2 [Peptide S (linear) Ac-…-NH2]
IC50 [2]: 3.3 nM

Ac-VQIARKLQAIADQFHR-NH2 [Bmf peptide Ac-…-NH2]
IC50 [2]: 0.25 nM

Ac-IAIAQELRRIGDEFNA-NH2 [Peptide P (linear) Ac-…-NH2]
IC50 [2]: 42 nM

Ac-IWAAQELRRIGDEFNA-NH2 [Peptide I (linear) Ac-…-NH2]
fold decrease in binding affinity against the linear 16-mer [3]: 100 fold
IC50 [2]: 360 nM

Ac-IWIAQELRRIGDEFAN-NH2 [Peptide R (linear) Ac-…-NH2]
fold decrease in affinity against the linear 16-mer [3]: 4 to 5 fold
IC50 [2]: 12 nM

Ac-REIGAQLRRMADDLNA-NH2 [Puma peptide Ac-…-NH2]
IC50 [2]: 52 nM

Ac-IRIAQELRRIGDEFNA-NH2 [Peptide Q (linear) Ac-…-NH2]
IC50 [2]: 17 nM

Ac-IWIAQELRRAGDEFNA-NH2 [Peptide K (linear) Ac-…-NH2]
fold decrease in binding affinity against the linear 16-mer [3]: 3 fold
IC50 [2]: 7.3 nM

Ac-IWIAQELRRIGDEFNN-NH2 [Peptide U (linear) Ac-…-NH2]
fold loss of binding affinity against the linear 16-mer [3]: 2 fold
IC50 [2]: 5.8 nM

Ac-IWIAQEARRIGDEFNA-NH2 [Peptide J (linear) Ac-…-NH2]
fold decrease in binding affinity against the linear 16-mer [3]: 1000 fold
IC50 [2]: 3700 nM

Ac-IWAAQEARRAGDEANA-NH2 [Peptide M (linear) Ac-…-NH2]
fold decrease in binding affinity against the linear 16-mer [3]: 25000 fold
IC50 [2]: 64000 nM

Ac-IWIAQELRRIGDEANA-NH2 [Peptide L (linear) Ac-…-NH2]
fold decrease in binding affinity against the linear 16-mer [3]: 1000 fold
IC50 [2]: 3500 nM

Ac-IWIAQQLRRIGDQFNA-NH2 [Peptide H (linear) Ac-…-NH2]
IC50 [2]: 3.3 nM

Ac-IFIAQELRRIGDEFNA-NH2 [Peptide N (linear) Ac-…-NH2]
IC50 [2]: 11 nM
